Where two headings read alike, the source gives them in different places.
Key:
[1] = molecular target: T1, recombinant mature dimeric myostatin (human and mouse (mature sequences 100% …, UniProt O08689 268-376)); experiment: cell-based or functional assay
T1 sequence: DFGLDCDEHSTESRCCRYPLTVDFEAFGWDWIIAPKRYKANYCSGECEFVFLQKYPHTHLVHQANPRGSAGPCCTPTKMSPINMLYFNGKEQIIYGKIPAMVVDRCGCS

Fc R 2a Arg polymorphism = molecular target: T2, Fc R 2a Arg polymorphism (UniProt P12318 34-217, limits assumed); experiment: ProteOn XPR36 SPR, antibody immobilised, receptor 8-2048 nM, equilibrium model
T2 construct: also called FcγRIIa Arg
T2 sequence (looked up): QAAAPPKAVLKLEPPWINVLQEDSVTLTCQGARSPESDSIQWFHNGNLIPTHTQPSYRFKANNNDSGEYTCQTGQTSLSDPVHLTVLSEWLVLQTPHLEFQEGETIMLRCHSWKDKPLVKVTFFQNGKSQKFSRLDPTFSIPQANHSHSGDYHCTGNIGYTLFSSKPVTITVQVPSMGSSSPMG
Procedure: (§1) Binding analysis to Fc R5 and C1q was carried out using the ProteOn XPR36. The test antibodies (H8L5 and Fc-disabled H8L5) were immobilised on a GLC biosensor chip by primary amine coupling. The Fc Rs were used at 2048 nM, 512 nM, 128 nM, 32 nM and 8 nM, while C1q was used at 512 nM, 128 nM, 32 nM, 8 nM and 2 nM. A buffer injection (i.e. 0 nM) was used to double reference the binding sensorgrams. Due to the nature of the interaction (i.e. fast on/fast-off) regeneration was not required and the binding sensorgrams returned to baseline by use of a 20 min dissociation time and subsequent buffer injections. The data was fitted to the Equilibrium model inherent to the PrateOn's analysis software, using a global R-max for each receptor group and for C1q binding (i.e. Fc R 2aHis and Arg polymorphisms were analysed together and Fc R3aPhe and Val polymorphisms were analysed together, while C1q was analysed separately).

Fc R3a Phe polymorphism = molecular target: T3, Fc R3a Phe polymorphism (UniProt P08637 17-208, limits assumed); experiment: as above
T3 construct: also called FcγRIIIa Phe
T3 sequence (P08637 17-208 limits assumed): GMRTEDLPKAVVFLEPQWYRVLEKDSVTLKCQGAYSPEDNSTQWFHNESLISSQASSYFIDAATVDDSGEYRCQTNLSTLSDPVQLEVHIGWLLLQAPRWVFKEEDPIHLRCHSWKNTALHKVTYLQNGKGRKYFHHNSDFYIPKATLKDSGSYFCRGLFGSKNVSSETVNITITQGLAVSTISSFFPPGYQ
Procedure: as §1

Fc R 2a His polymorphism = molecular target: T4, Fc R 2a His polymorphism (UniProt P12318 34-217, limits assumed); experiment: as above
T4 construct: also called FcγRIIa His
T4 sequence (looked up): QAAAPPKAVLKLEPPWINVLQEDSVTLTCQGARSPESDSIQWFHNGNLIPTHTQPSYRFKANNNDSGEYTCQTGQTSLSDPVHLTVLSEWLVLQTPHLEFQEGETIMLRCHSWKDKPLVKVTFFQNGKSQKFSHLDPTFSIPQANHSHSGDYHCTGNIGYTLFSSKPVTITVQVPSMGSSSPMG
Procedure: as §1

Fc R3a Val polymorphism = molecular target: T5, Fc R3a Val polymorphism (UniProt P08637 17-208, limits assumed); experiment: as above
T5 construct: also called FcγRIIIa Val
T5 sequence (P08637 17-208 F176V limits assumed): as the sequence (P08637 17-208 limits assumed) above, with F160V counted along it
Procedure: as §1

[2] = molecular target: T1, recombinant mature dimeric myostatin; experiment: cell-based or functional assay; remark: listed apart in the source
[3] = molecular target: T1, recombinant mature dimeric myostatin; experiment: BIAcore T100 SPR, antibody captured on protein A, myostatin analyte, all curves Bivalent model
Procedure: (§2) The affinity of 10B3 mouse parental and 10B3C for recombinant myostatin was assessed by BIAcore™ (surface plasmon resonance) analysis. Analysis was carried out by the use of a capture surface: anti-mouse IgG was coupled to a C1 chip by primary amine coupling for 10B3 mouse parental; and a protein A surface was created on a C1 chip by primary amine coupling for 10B3 chimera.
(§3) After capture, recombinant myostatin was passed over the surface at 64 nM, 16 nM, 4 nM, 1 nM, 0.25 nM and 0.0625 nM, with a buffer injection (i.e. 0 nM) used for double referencing. There was a regeneration step between each analyte injection, after which the new antibody capture event occurred before the next injection of myostatin. The data was analysed using both the 1:1 model and the Bivalent model inherent to the T100 machines analysis software (see Table 6). Both capture surfaces could be regenerated using 100 mM phosphoric acid, the work was carried out using HBS-EP as the running buffer and using 25° C. as the analysis temperature.

[4] = molecular target: T1, recombinant mature dimeric myostatin; experiment: cell-based or functional assay; remark: listed apart in the source
[5] = molecular target: T1, recombinant mature dimeric myostatin; experiment: cell-based or functional assay; remark: listed apart in the source
[6] = molecular target: T1, recombinant mature dimeric myostatin; experiment: BIAcore T100 SPR, antibody captured on protein A, myostatin analyte, all curves 1:1 model
Procedure: as §2, §3

[7] = molecular target: T1, recombinant mature dimeric myostatin; experiment: ActRIIb receptor neutralisation ELISA: antibody pre-incubated with 2 nM biotinylated myostatin, binding to coated ActRIIb
Procedure: Recombinant soluble ActRIIb (R&D Systems 339-RBB) was coated in wells of an ELISA plate at 1 μg/ml in carbonate buffer overnight at 4° C. Plates were blocked (see Block solution above at 2.3) and washed following standard ELISA protocols. In parallel, 2 nM biotinylated myostatin (in-house, as described in 1.1, biotinylated material) was pre-incubated with an antibody dilution series consisting of 10B3, 10B3C, and a negative control (IgG1 isotype control) for 2 hours at 37° C. The biotinylated myostatin:antibody reactions were then added to the ActRIIb coated plate for 1 hour at 37° C. Standard wash procedures were followed prior to addition of 1:1000 diluted streptavidin-HRP conjugate (Dako P0397) and a further 37° C. incubation for 1 hour. Plates were again washed and assayed at absorbance 490 nm following OPD substrate (Sigma) and acid stop solution treatment. Inhibition curves and IC50 values for the inhibition of myostatin activity are shown in FIG. 5 and Table 8 respectively.

[8] = molecular target: T1, recombinant mature dimeric myostatin; experiment: ELISA, myostatin coated at 10 ng/well
Procedure: 10B3 and 10B3 chimera (10B3C) bound myostatin (R&D Systems, 788-G8-010/CF) in a sandwich ELISA. Plates were coated with myostatin at 10 ng/well and blocked with Block solution (PBS, 0.1% TWEEN and 1% BSA). Following washing (PBS, 0.1% TWEEN), antibody was incubated at 37° C. for 2 hours over a dilution series and plates washed again prior to incubation at 37° C. for 1 hour with anti-mouse HRP or anti-human HRP (Dako, P0161 & Sigma, A-8400, respectively). Plates were again washed and OPD substrate (Sigma, P9187) added until colourometric reaction occurred and the reaction stopped by the addition of H₂SO₄.

[9] = molecular target: T1, recombinant mature dimeric myostatin; experiment: Kinexa solution phase affinity
Procedure: Kinexa (Sapidyne Instruments) solution phase affinity was used to determine the overall affinity for a range of anti-myostatin molecules. Myostatin beads were prepared either by adsorption (polymethylmethacrylate beads-PMMA) or amine coupling (NHS-activated sepharose beads). The range of anti-myostatin molecules studied necessitated the generation of beads coated with different concentrations of myostatin. For the solution phase portion of the assay, a fixed concentration of antibody was incubated with a broad range of myostatin concentrations and allowed to reach equilibrium by incubation at r.t. for at least 2 h before analysis proceeded. The myostatin beads were then used to determine the amount of free antibody present in the solution phase samples, by means of the free antibody binding to the myostatin bead matrix then detected using an appropriate secondary antibody (either anti-human or anti-mouse depending on the construct being tested) labelled with a fluorescent dye. The binding curves where fitted using the Kinexa Pro analysis software inherent to the machine. Multiple runs using varying starting concentrations of antibody were then compiled and analysed using the n-curve analysis software to give a more accurate determination of affinity.

B1: H2L2-C91S_F100G_Y Fc Disabled (antibody, human IgG1, kappa)
heavy: QVQLVQSGAEVKKPGASVKVSCKASGYSFTGYFMHWVRQAPGQGLEWMGNIYPYNGVSNYNQRFKARVTMTTDTSTSTAYMELRSLRSDDTAVYYCARRYYYGTGPADWYYDVWGQGTLVTVSSASTKGPSVFPLAPSSKSTSGGTAALGCLVKDYFPEPVTVSWNSGALTSGVHTFPAVLQSSGSLSSVVTVPSSSLGTQTYICNVNHKPSNTKVDKKVEPKSCDKTHTCPPCPAPELAGAPSVFLFPPKPKDTLMISRTPEVTCVVVDVSHEDPEVKFNWYVDGVEVHNAKTKPREEQYNSYVVSVLTVLHQDWLNGKEYKCKVSNKALPAPIEKTISKAKGQPREPQVYTLPPSRDELTKNQVSLTCLVKGFYPSDIAVEWESNGQPENNYKTTPPVLDSDGSFFKKLTVDKSRWQQGNVFSCSVMHEALHNHYTQKSLSLSPGK
light: DIQMTQSPSSLSASVGDRVTITCKASQDINSYLSWFQQKPGKAPKSLIYRANRLVDGVPSKFSGSGSGTDYTLTISSLQPEDFATYYCLQSDEFPLTFGQGTKLEIKRTVAAPSVFIFPPSDEQLKSGTASVVCLLNNFYPREAKVQWKVDNALQSGNSQESVTEQDSKDSTYSLSSTLTLSKADYEKHKVYACEVTHQGLSSPVTKSFNRGEC
For B1, the “Mean IC50, A204 in vitro activity assay” value [1] was 1.24 nM.

B2: Fc-disabled H8L5 (antibody, IgG1)
heavy: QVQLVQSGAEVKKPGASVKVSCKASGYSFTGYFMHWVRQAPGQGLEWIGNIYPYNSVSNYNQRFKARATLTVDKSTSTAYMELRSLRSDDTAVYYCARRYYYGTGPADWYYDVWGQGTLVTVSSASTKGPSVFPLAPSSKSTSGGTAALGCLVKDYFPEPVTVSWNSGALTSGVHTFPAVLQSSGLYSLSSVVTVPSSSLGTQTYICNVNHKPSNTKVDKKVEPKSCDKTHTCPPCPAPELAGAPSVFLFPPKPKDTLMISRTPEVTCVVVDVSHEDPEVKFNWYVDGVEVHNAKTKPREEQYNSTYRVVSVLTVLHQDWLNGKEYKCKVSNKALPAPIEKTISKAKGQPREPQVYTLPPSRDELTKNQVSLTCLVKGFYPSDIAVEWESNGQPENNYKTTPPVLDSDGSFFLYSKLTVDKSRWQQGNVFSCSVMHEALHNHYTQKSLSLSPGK
light: DIQMTQSPSSLSASVGDRVTITCKASQDINSYLSWFQQKPGKAPKTLIYRANRLVDGVPSKFSGSGSGTDYTLTISSLQPEDFATYYCLQSDEFPLTFGQGTKLEIKRTVAAPSVFIFPPSDEQLKSGTASVVCLLNNFYPREAKVQWKVDNALQSGNSQESVTEQDSKDSTYSLSSTLTLSKADYEKHKVYACEVTHQGLSSPVTKSFNRGEC
notes: hIgG1 Fc disabled (L235A, G237A, EU numbering); also called H8L5 disabled; H8disabledL5; copies: 2 + 2
B2: binds (Fc R 2a Arg polymorphism); binds (Fc R3a Phe polymorphism); binds (Fc R 2a His polymorphism). B2: binds (Fc R3a Val polymorphism).

B3: 10B3 chimera (antibody, human IgG1, V domains shown)
VH: EVQLQQSGPELVKPGASVKISCKASGYSFTGYFMHWVKQSHGNILDWIGNIYPYNGVSNYNQRFKAKATLTVDKSSSTAYMELRSLTSEDSAVYYCARRYYYGTGPADWYFDVWGTGTLVTVSS
VL: DIKMTQSPSSMYASLRERVTITCKASQDINSYLSWFQQKPGKSPKTLIYRANRLVDGVPSRFSGSGSGQDYSLTISSLEYEDMGIYYCLQCDEFPLTFGAGTKLELKR
notes: 10B3 variable regions on human IgG1/k wild type constant regions; also called HCLC; HcLc
For B3, the “Mean IC50, A204 in vitro activity assay” value [2] was 3.53 nM, the Kd [3] was 3.6 nM and the “IC50, myostatin responsive reporter gene assay (A204 cells, luciferase)” value [4] was 6.2 nM. The “Mean IC50, A204 in vitro activity assay” value [5] was 3.57 nM, the Kd [6] was 0.088 nM and the IC50 [7] was 0.138 µg/mL. For the same binder, the EC50 [8] was 0.049 µg/mL and the Kd [9] was 0.548 nM.

B4: H2L2-C91S (antibody, IgG1, V domains shown)
VH: QVQLVQSGAEVKKPGASVKVSCKASGYSFTGYFMHWVRQAPGQGLEWMGNIYPYNGVSNYNQRFKARVTMTTDTSTSTAYMELRSLRSDDTAVYYCARRYYYGTGPADWYFDVWGQGTLVTVSS
VL: DIQMTQSPSSLSASVGDRVTITCKASQDINSYLSWFQQKPGKAPKSLIYRANRLVDGVPSKFSGSGSGTDYTLTISSLQPEDFATYYCLQSDEFPLTFGQGTKLEIKR
B4 was tested, and the “Mean IC50, A204 in vitro activity assay” value [2] was 5.14 nM and the “Mean IC50, A204 in vitro activity assay” value [1] was 4.08 nM.
